# From patent publication US20230219996A1
# Columns and labels:
# [1] = target: SARS-CoV-2 spike (Wuhan, wild-type) (SARS-CoV-2) (UniProt P0DTC2); assay: MSD V-PLEX ACE2 kit, sVNT, positive control; competitor ACE2 (NHP study)
# [2] = target: SARS-CoV-2 spike (Wuhan, wild-type) (SARS-CoV-2) (UniProt P0DTC2); assay: MSD V-PLEX ACE2 kit, sVNT, positive control; competitor ACE2 (mouse study)
substance,measurement,setting,value
ACE2 Calibration Reagent (included in the MSD kit),ACE2-binding percent inhibition,[1],100%
same,ACE2-binding percent inhibition,[2],100%
